Article PMC9482650, “Quantitative fragmentomics allow affinity mapping of interactomes” (Nature Communications, 2022)

T1: APBA1_1, Q02410
T1 sequence (Q02410 651-752, limits assumed, looked up): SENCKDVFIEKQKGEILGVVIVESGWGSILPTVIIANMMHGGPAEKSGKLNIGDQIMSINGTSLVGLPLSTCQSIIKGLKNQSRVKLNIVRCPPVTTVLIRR

T2: APBA2_1, Q99767
T2 sequence (Q99767 563-664, limits assumed, looked up): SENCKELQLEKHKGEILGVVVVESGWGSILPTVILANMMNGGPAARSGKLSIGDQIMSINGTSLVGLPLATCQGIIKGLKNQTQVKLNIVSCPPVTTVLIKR

T3: APBA2_2, Q99767
T3 sequence (Q99767 654-744, limits assumed, looked up): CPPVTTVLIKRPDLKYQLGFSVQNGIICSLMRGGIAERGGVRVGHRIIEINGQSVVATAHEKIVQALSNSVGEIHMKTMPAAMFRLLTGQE

T4: APBA3_1, O96018
T4 sequence (O96018 389-490, limits assumed, looked up): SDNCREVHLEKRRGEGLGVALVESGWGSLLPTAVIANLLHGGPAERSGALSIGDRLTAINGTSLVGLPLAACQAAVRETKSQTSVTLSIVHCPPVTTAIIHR

T5: DFNB31_3, Q9P202
T5 sequence (Q9P202 811-907, limits assumed, looked up): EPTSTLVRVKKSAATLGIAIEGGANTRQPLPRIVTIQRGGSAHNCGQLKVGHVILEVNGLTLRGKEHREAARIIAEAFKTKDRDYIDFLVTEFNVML

T6: DVL3, Q92997
T6 sequence (Q92997 244-331, limits assumed, looked up): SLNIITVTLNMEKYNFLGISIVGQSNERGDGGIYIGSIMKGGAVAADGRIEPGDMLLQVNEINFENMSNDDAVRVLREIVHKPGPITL

T7: HTRA4, P83105
T7 sequence (P83105 378-476, limits assumed, looked up): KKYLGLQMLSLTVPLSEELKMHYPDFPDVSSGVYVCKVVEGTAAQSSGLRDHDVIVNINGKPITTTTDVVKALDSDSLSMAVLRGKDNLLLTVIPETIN

T8: LIN7B, Q9HAP6
T8 sequence (Q9HAP6 88-185, limits assumed, looked up): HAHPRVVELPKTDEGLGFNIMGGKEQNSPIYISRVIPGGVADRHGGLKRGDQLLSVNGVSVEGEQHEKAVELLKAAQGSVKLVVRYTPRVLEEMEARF

T9: MPDZ_10, O75970
T9 sequence (O75970 1624-1722, limits assumed, looked up): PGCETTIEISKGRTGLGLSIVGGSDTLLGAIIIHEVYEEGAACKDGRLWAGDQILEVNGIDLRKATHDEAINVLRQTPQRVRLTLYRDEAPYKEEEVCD

T10: NHERF3_4, Q5T2W1
T10 sequence (Q5T2W1 373-468, limits assumed, looked up): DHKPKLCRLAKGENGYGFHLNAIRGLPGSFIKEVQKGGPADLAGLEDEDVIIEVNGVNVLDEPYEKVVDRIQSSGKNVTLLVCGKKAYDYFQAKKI

T11: PDZD7_3, Q9H5P4
T11 sequence (Q9H5P4 857-944, limits assumed, looked up): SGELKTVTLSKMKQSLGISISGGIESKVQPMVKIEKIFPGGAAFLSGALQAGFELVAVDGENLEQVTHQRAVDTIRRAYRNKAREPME

T12: SIPA1L2, Q9P2F8
T12 sequence (Q9P2F8 945-1036, limits assumed, looked up): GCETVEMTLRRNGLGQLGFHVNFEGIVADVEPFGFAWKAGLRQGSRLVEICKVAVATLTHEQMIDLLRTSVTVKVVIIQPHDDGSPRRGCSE

T13: SYNJ2BP, P57105
T13 sequence (P57105 8-110, limits assumed, looked up): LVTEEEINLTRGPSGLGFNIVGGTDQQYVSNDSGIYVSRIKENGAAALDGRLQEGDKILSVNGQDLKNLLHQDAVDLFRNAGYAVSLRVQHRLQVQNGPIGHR


Tests used:
Experiment in all cases: holdup assay
Parameters in all cases: key: below the threshold = too weak to quantify, mostly under pKd 3.1 to 4
Details in all cases: plain residues with an end cap or a label only (N-terminal biotin on a linker: ado-ado)
APBA1_1, Q02410 = target: T1, APBA1_1, Q02410
APBA2_1, Q99767 = target: T2, APBA2_1, Q99767
APBA2_2, Q99767 = target: T3, APBA2_2, Q99767
APBA3_1, O96018 = target: T4, APBA3_1, O96018
DFNB31_3, Q9P202 = target: T5, DFNB31_3, Q9P202
DVL3, Q92997 = target: T6, DVL3, Q92997
FRMPD4, Q14CM0 = target: FRMPD4, Q14CM0
GRASP, Q7Z6J2 = target: GRASP, Q7Z6J2
GRIP2_3, Q9C0E4 = target: GRIP2_3, Q9C0E4
GRIP2_7, Q9C0E4 = target: GRIP2_7, Q9C0E4
HTRA4, P83105 = target: T7, HTRA4, P83105
Inadl_2, Q8NI35 = target: Inadl_2, Q8NI35
LIN7B, Q9HAP6 = target: T8, LIN7B, Q9HAP6
MAGI2_4, Q86UL8 = target: MAGI2_4, Q86UL8
MAGI3_2, Q5TCQ9 = target: MAGI3_2, Q5TCQ9
MAST2, Q6P0Q8 = target: MAST2, Q6P0Q8
MPDZ_10, O75970 = target: T9, MPDZ_10, O75970
NHERF3_4, Q5T2W1 = target: T10, NHERF3_4, Q5T2W1
PDLIM1, O00151 = target: PDLIM1, O00151
PDZD7_3, Q9H5P4 = target: T11, PDZD7_3, Q9H5P4
SIPA1L2, Q9P2F8 = target: T12, SIPA1L2, Q9P2F8
SNX27, Q96L92 = target: SNX27, Q96L92
SYNJ2BP, P57105 = target: T13, SYNJ2BP, P57105
TJP2_1, Q9UDY2 = target: TJP2_1, Q9UDY2
Sequence of TJP2_1, Q9UDY2 (Q9UDY2 24-128): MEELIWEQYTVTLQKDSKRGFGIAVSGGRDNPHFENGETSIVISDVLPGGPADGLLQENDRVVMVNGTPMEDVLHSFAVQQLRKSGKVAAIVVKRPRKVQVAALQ

Sequence of GRIP2_7, Q9C0E4 (Q9C0E4 934-1023): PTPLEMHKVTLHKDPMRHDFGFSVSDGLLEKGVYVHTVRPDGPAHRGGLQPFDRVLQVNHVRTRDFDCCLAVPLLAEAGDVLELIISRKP
Sequence of MAGI2_4, Q86UL8 (Q86UL8 772-865): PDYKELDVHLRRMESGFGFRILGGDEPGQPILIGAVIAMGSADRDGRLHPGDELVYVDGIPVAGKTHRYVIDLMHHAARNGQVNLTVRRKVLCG
Sequence of FRMPD4, Q14CM0 (Q14CM0 67-160): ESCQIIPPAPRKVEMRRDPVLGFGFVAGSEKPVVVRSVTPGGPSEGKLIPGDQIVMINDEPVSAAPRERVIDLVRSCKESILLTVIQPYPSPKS
Sequence of MAGI3_2, Q5TCQ9 (Q5TCQ9 398-503): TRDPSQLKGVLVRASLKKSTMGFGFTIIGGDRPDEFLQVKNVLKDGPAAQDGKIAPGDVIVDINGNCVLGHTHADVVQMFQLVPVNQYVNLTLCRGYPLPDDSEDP
Sequence of Inadl_2, Q8NI35 (Q8NI35 238-335): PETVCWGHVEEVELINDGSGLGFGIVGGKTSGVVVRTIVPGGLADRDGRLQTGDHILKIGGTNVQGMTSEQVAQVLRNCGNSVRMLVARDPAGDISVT
Sequence of PDLIM1, O00151 (O00151 1-87): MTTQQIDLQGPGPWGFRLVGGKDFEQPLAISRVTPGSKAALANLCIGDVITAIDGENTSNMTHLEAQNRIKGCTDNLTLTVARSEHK
Sequence of GRASP, Q7Z6J2 (Q7Z6J2 96-193): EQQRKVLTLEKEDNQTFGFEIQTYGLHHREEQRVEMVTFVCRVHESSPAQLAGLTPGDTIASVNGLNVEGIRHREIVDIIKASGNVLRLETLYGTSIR
Sequence of MAST2, Q6P0Q8 (Q6P0Q8 1099-1202): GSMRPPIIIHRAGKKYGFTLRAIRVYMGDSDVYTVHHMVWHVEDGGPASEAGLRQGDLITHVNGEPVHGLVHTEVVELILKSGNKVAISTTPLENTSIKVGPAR
Sequence of GRIP2_3, Q9C0E4 (Q9C0E4 238-339): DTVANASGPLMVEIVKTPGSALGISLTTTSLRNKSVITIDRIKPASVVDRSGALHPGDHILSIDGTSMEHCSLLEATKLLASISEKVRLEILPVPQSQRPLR

Binder | pKd (APBA1_1, Q02410) | pKd (APBA2_1, Q99767) | pKd (APBA2_2, Q99767) | pKd (APBA3_1, O96018) | pKd (DFNB31_3, Q9P202) | pKd (DVL3, Q92997) | pKd (FRMPD4, Q14CM0) | pKd (GRASP, Q7Z6J2) | pKd (GRIP2_3, Q9C0E4) | pKd (GRIP2_7, Q9C0E4) | pKd (HTRA4, P83105) | pKd (Inadl_2, Q8NI35) | pKd (LIN7B, Q9HAP6) | pKd (MAGI2_4, Q86UL8) | pKd (MAGI3_2, Q5TCQ9) | pKd (MAST2, Q6P0Q8) | pKd (MPDZ_10, O75970) | pKd (NHERF3_4, Q5T2W1) | pKd (PDLIM1, O00151) | pKd (PDZD7_3, Q9H5P4) | also measured
EALLQMESVA [CAVIN3, Q969G5] | below the threshold | below the threshold | 3.61 | below the threshold | below the threshold | below the threshold | below the threshold | below the threshold | below the threshold | below the threshold | below the threshold | below the threshold | 3.57 | below the threshold | below the threshold | below the threshold | below the threshold | below the threshold | below the threshold | below the threshold | pKd (SIPA1L2, Q9P2F8): below the threshold; pKd (SNX27, Q96L92): 4.13; pKd (SYNJ2BP, P57105): 3.52; pKd (TJP2_1, Q9UDY2): below the threshold
EKKTLIGIKL [GOT1L1, Q8NHS2] | below the threshold | below the threshold | below the threshold | below the threshold | 4.02 | below the threshold | 4.47 | below the threshold | below the threshold | below the threshold | below the threshold | below the threshold | below the threshold | below the threshold | below the threshold | 4.66 | below the threshold | 4.74 | below the threshold | below the threshold | pKd (SIPA1L2, Q9P2F8): below the threshold; pKd (SNX27, Q96L92): below the threshold; pKd (SYNJ2BP, P57105): below the threshold; pKd (TJP2_1, Q9UDY2): below the threshold
CLREWCDAFL [BANF1, O75531] | 3.72 | below the threshold | below the threshold | below the threshold | below the threshold | 3.65 | 4.72 | 3.51 | below the threshold | below the threshold | 3.64 | below the threshold | 3.94 | 3.73 | below the threshold | 5.52 | below the threshold | 3.62 | below the threshold | below the threshold | pKd (SIPA1L2, Q9P2F8): below the threshold; pKd (SNX27, Q96L92): 4.58; pKd (SYNJ2BP, P57105): below the threshold; pKd (TJP2_1, Q9UDY2): below the threshold
GSGAVEMESV [AQP6, Q13520] | below the threshold | below the threshold | below the threshold | below the threshold | below the threshold | below the threshold | below the threshold | below the threshold | below the threshold | below the threshold | 3.88 | below the threshold | below the threshold | below the threshold | below the threshold | 4.03 | below the threshold | below the threshold | below the threshold | below the threshold | pKd (SIPA1L2, Q9P2F8): below the threshold; pKd (SNX27, Q96L92): 3.7; pKd (SYNJ2BP, P57105): below the threshold; pKd (TJP2_1, Q9UDY2): below the threshold

More lines, main results first:

pKd (APBA1_1, Q02410) | pKd (APBA2_1, Q99767) | pKd (APBA2_2, Q99767) | pKd (APBA3_1, O96018) | pKd (DFNB31_3, Q9P202) | pKd (DVL3, Q92997) | pKd (FRMPD4, Q14CM0) | pKd (GRASP, Q7Z6J2) | pKd (GRIP2_3, Q9C0E4) | pKd (GRIP2_7, Q9C0E4) | pKd (HTRA4, P83105) | pKd (Inadl_2, Q8NI35) | pKd (LIN7B, Q9HAP6) | pKd (MAGI2_4, Q86UL8) | pKd (MAGI3_2, Q5TCQ9) | pKd (MAST2, Q6P0Q8) | pKd (MPDZ_10, O75970) | pKd (NHERF3_4, Q5T2W1) | pKd (PDLIM1, O00151) | pKd (PDZD7_3, Q9H5P4) | Binder | also measured
below the threshold | below the threshold | below the threshold | below the threshold | below the threshold | below the threshold | 3.5 | 4 | below the threshold | below the threshold | below the threshold | below the threshold | below the threshold | below the threshold | 4.18 | 5.4 | below the threshold | below the threshold | below the threshold | 4.09 | SARSRLSSNL [HCN2, Q9UL51] | pKd (SIPA1L2, Q9P2F8): below the threshold; pKd (SNX27, Q96L92): 4.3; pKd (SYNJ2BP, P57105): 3.76; pKd (TJP2_1, Q9UDY2): below the threshold
below the threshold | below the threshold | below the threshold | below the threshold | below the threshold | below the threshold | 3.7 | 3.94 | below the threshold | below the threshold | below the threshold | below the threshold | below the threshold | below the threshold | below the threshold | 5.48 | below the threshold | below the threshold | below the threshold | below the threshold | IKAIVDLTGL [TRAF2, Q12933] | pKd (SIPA1L2, Q9P2F8): below the threshold; pKd (SNX27, Q96L92): 3.51; pKd (SYNJ2BP, P57105): below the threshold; pKd (TJP2_1, Q9UDY2): below the threshold
